Source: patent publication US20060088549A1, “Chimeric virus vaccine” (priority 2004, published 2006)
“Also recorded” adds a separate entry of the source.

Legend:
2F5 = settings: cited from earlier work; for binding/affinity to 2F5 relative to the LELDKWASL peptide: Tian, 2003
[1] = molecular target: HRV14:HIV-1 gp41 […] chimeric virus 14-B128-12; test: cell-based or functional assay
[2] = molecular target: HRV14:HIV-1 gp41 […] chimeric virus 14-B128-22; test: cell-based or functional assay
[3] = molecular target: HRV14:HIV-1 gp41 […] chimeric virus 14-B128-23; test: cell-based or functional assay
[4] = molecular target: HRV14:HIV-1 gp41 […] chimeric virus 14-B64-5; test: cell-based or functional assay
[5] = molecular target: HRV14:HIV-1 gp41 […] chimeric virus 14-C1000-1; test: cell-based or functional assay
[6] = molecular target: HRV14:HIV-1 gp41 […] chimeric virus 14-C4000-1 (human rhinovirus type 14) (UniProt P03303); test: cell-based or functional assay
[7] = molecular target: HRV14:HIV-1 gp41 […] chimeric virus 14-C4000-14; test: cell-based or functional assay
[8] = molecular target: HRV14:HIV-1 gp41 […] chimeric virus 14-C512-2; test: cell-based or functional assay
[9] = molecular target: HRV14:HIV-1 gp41 […] chimeric virus 14-C512-3; test: cell-based or functional assay
[10] = molecular target: HRV14:HIV-1 gp41 […] chimeric virus 22-AN15000-8; test: cell-based or functional assay
[11] = molecular target: HRV14:HIV-1 gp41 […] chimeric virus 24-AN15000-3; test: cell-based or functional assay
[12] = molecular target: HRV14:HIV-1 gp41 […] chimeric virus 44-B256-2; test: cell-based or functional assay
[13] = molecular target: HRV14:HIV-1 gp41 […] chimeric virus 44-B4000-13; test: cell-based or functional assay
[14] = molecular target: HRV14:HIV-1 gp41 […] chimeric virus 44-B64-12; test: cell-based or functional assay
[15] = molecular target: HRV14:HIV-1 gp41 […] chimeric virus 44-B64-14; test: cell-based or functional assay
[16] = molecular target: HRV14:HIV-1 gp41 […] chimeric virus 44-B64-4; test: cell-based or functional assay
[17] = molecular target: HRV14:HIV-1 gp41 […] chimeric virus 44-BN30000-2; test: cell-based or functional assay
[18] = molecular target: HRV14:HIV-1 gp41 […] chimeric virus 44-BN30000-9; test: cell-based or functional assay
[19] = molecular target: HRV14:HIV-1 gp41 […] chimeric virus 44-BN7500-4; test: cell-based or functional assay
[20] = molecular target: HRV14:HIV-1 gp41 […] chimeric virus 44-C4000-4 (human rhinovirus type 14) (UniProt P03303); test: cell-based or functional assay
[21] = molecular target: HRV14:HIV-1 gp41 […] chimeric virus 64-B256-2; test: cell-based or functional assay
[22] = molecular target: HRV14:HIV-1 gp41 […] chimeric virus 64-B32-3; test: cell-based or functional assay
[23] = molecular target: HRV14:HIV-1 gp41 […] chimeric virus 64-B32-4; test: cell-based or functional assay
[24] = molecular target: HRV14:HIV-1 gp41 […] chimeric virus 64-C16-2; test: cell-based or functional assay
[25] = molecular target: HRV14:HIV-1 gp41 […] chimeric virus 64-C32-3; test: cell-based or functional assay
[26] = molecular target: Biotin-conjugated …-NH2 (HIV-1); test: direct ELISA, IgG on immobilized biotinylated …; settings: scale: reciprocal dilution of 1 mg/ml IgG at OD450 of 0.5

## Ac-CENEQELLELDKWASL-NH2 [Linear-1]
2F5
  binding/affinity to 2F5 relative to the LELDKWASL peptide: higher affinities to 2F5

## Ac-CNEQELLEKDKWADL-NH2 (lactam (positions not given here); also: lactam bridge between underlined K and D, places not given here) [Lac-1, constrained peptide with a lactam bridge between K and D residues]
2F5
  binding/affinity to 2F5 relative to the LELDKWASL peptide: higher affinities to 2F5; also recorded: two times more tightly

## LELDKWASL
2F5; Tian et al., 2002
  binding to 2F5 in an ELISA relative to the shorter ELDKWAS peptide: ~100 fold

## human mAb 2F5 (antibody)
[1]
  2F5 IC50, microtiter neutralization assay: 0.49 µg/mL
[2]
  2F5 IC50, microtiter neutralization assay: 0.57 µg/mL
[3]
  2F5 IC50, microtiter neutralization assay: 5.9 µg/mL
[4]
  2F5 IC50, microtiter neutralization assay: 0.29 µg/mL
[5]
  2F5 IC50, microtiter neutralization assay: 1.5 µg/mL
[6]
  2F5 IC50, microtiter neutralization assay: 0.98 µg/mL
[7]
  2F5 IC50, microtiter neutralization assay: 0.64 µg/mL
[8]
  2F5 IC50, microtiter neutralization assay: 0.05 µg/mL
[9]
  2F5 IC50, microtiter neutralization assay: 3 µg/mL
[10]
  2F5 IC50, microtiter neutralization assay: 8.2 µg/mL
[11]
  2F5 IC50, microtiter neutralization assay: 1.5 µg/mL
[12]
  2F5 IC50, microtiter neutralization assay: 0.31 µg/mL
[13]
  2F5 IC50, microtiter neutralization assay: 0.24 µg/mL
[14]
  2F5 IC50, microtiter neutralization assay: 0.21 µg/mL
[15]
  2F5 IC50, microtiter neutralization assay: 0.16 µg/mL
[16]
  2F5 IC50, microtiter neutralization assay: 0.06 µg/mL
[17]
  2F5 IC50, microtiter neutralization assay: 0.01 µg/mL
[18]
  2F5 IC50, microtiter neutralization assay: 0.02 µg/mL
[19]
  2F5 IC50, microtiter neutralization assay: 0.01 µg/mL
[20]
  2F5 IC50, microtiter neutralization assay: 0.66 µg/mL
[21]
  2F5 IC50, microtiter neutralization assay: 0.23 µg/mL
[22]
  2F5 IC50, microtiter neutralization assay: 0.05 µg/mL
[23]
  2F5 IC50, microtiter neutralization assay: 0.49 µg/mL
[24]
  2F5 IC50, microtiter neutralization assay: 0.07 µg/mL
[25]
  2F5 IC50, microtiter neutralization assay: 0.05 µg/mL
[26]
  … binding: 2400
